Test [1] deals with T1, Negative Control Peptibody 4883 (Homo sapiens (Human), UniProt P0DOX5 223-449 = IgG part). The test is described as follows: ELISA on conditioned medium with C-terminal hAng-2 (aa 255-495, C-terminal 6xHis); O.D. 370; pCDNA3 vector-control medium as blank. Here is the method: (§1) The binding epitope of anti-Ang-2 antibodies and peptibodies was determined by their ability to bind the three versions of human hAng-2 by ELISA according to the following protocol: a high-binding 96-well assay plate was coated with 100 μl of conditioned media per well, and incubated at 37° C. for 1 hour. Conditioned media was aspirated, and the plate was blocked with 200 μl per well of 5% BSA in PBS at room temperature for 1 hour. The blocking solution was then aspirated. […] The wells were washed 4 times with 200 μl of 0.1% Tween in PBS. 100 μl per well of HRP-conjugated goat anti-human IgG or goat anti-mouse IgG were added, and incubated at room temperature for 45 minutes. The wells were then washed with 200 μl of 0.1% Tween in PBS 4 times. 100 μl per well of TMB substrate was then added. O.D. was read at 370 nm.
In general terms: ELISA stands for enzyme-linked immunosorbent assay.

For test [2], the target named is T2, Tie-2-Fc (R&D Systems, catalog number 313-TI) (human, UniProt Q02763 23-748).
T2 construct: extracellular domain; bought; also called hTie2-Fc; Recombinant Human Tie-2-Fc Chimera; not shown: Fc of the bought chimera
The test is described as follows: ELISA on conditioned medium with N-terminal hAng-2 (aa 1-254, C-terminal 6xHis); O.D. 370; pCDNA3 vector-control medium as blank. Here is the method:
as §1

For another test, the target named is T3, Con4 (C) (Homo sapiens (Human), UniProt P0DOX5 223-449 = IgG part).
T3 construct: also called TN8-Con4-C
The test is described as above. How it is done: as §1

Test [3] has as its target T1, Negative Control Peptibody 4883. Described as above. How it is done: as §1
Test [4] addresses T4, 2xCon4 (C) 1K.
T4 construct: also called 2×Con4-C; 2×CON4-C (Pb5714)
The test is described as follows: KinExA solution competition, 10 pM 2xCON4-C; soluble huAng-2 varied, competing with huAng-2 on beads. The source says:
(§2) Reacti-Gel 6× beads (Pierce, Rockford, Ill.) were pre-coated with huAng-2 and blocked with BSA. […] The amount of the bead-bound peptibody was quantified by fluorescent (Cy5) labeled goat anti-human-Fc antibody (Jackson Immuno Research, West Grove, Pa.). The binding signal is proportional to the concentration of free peptibody at equilibrium.
(§3) The dissociation equilibrium constant (KD) was obtained from nonlinear regression of the competition curves using a dual-curve one-site homogeneous binding model (KinE×™ software).
For orientation: Kinetic exclusion samples the free partner from a solution-phase mixture.

Test [5] addresses T4, 2xCon4 (C) 1K. As to the kind of experiment: KinExA solution competition, 30 pM 2xCON4-C; soluble huAng-2 varied, competing with huAng-2 on beads.
Text: as §2, §3

The values that follow come from US20070093418A1 (Amgen, published 2007).

B1: C-term of hAng2 (aa 255-495) (ligand)
chain: VNNLLTMMSTSNSKDPTVAKEEQISFRDCAEVFKSGHTTNGIYTLTFPNSTEEIKAYCDMEAGGGGWTIIQRREDGSVDFQRTWKEYKVGFGNPSGEYWLGNEFVSQLTNQQRYVLKIHLKDWEGNEAYSLYEHFYLSSEELNYRIHLKGLTGTAGKISSISQPGNDFSTKDGDNDKCICKCSQMLTGGWWFDACGPSNLNGMYYPQRQNTNKFNGIKWYYWKGSGYSLKATTMMIRPADFHHHHHH
notes: also called C-terminal (amino acids 255-495) human Ang-2
Regarding B1, in test [1], the binding result is recorded as “no binding (tested: 1 µg/ml (single concentration))”.

B2: N-term hAng2 (aa 1-254) (ligand)
chain: YNNFRKSMDSIGKKQYQVQHGSCSYTFLLPEMDNCRSSSSPYVSNAVQRDAPLEYDDSVQRLQVLENIMENNTQWLMKLENYIQDNMKKEMVEIQQNAVQNQTAVMIEIGTNLLNQTAEQTRKLTDVEAQVLNQTTRLELQLLEHSLSTNKLEKQILDQTSEINKLQDKNSFLEKKVLAMEDKHIIQLQSIKEEKDQLQVLVSKQNSIIEELEKKIVTATVNNSVLQKQQHDLMETHHHHHH
notes: also called N-terminal (amino acids 1-254) human Ang-2
As to B2, the binding result (in test [2]; in the test with Con4 (C); in test [3]) was “no binding (tested: 1 µg/ml (single concentration))” throughout.

B3: human angiopoietin-2 (Ang-2) (ligand, UniProt O15123 19-496, looked up)
chain: YNNFRKSMDSIGKKQYQVQHGSCSYTFLLPEMDNCRSSSSPYVSNAVQRDAPLEYDDSVQRLQVLENIMENNTQWLMKLENYIQDNMKKEMVEIQQNAVQNQTAVMIEIGTNLLNQTAEQTRKLTDVEAQVLNQTTRLELQLLEHSLSTNKLEKQILDQTSEINKLQDKNSFLEKKVLAMEDKHIIQLQSIKEEKDQLQVLVSKQNSIIEELEKKIVTATVNNSVLQKQQHDLMETVNNLLTMMSTSNSAKDPTVAKEEQISFRDCAEVFKSGHTTNGIYTLTFPNSTEEIKAYCDMEAGGGGWTIIQRREDGSVDFQRTWKEYKVGFGNPSGEYWLGNEFVSQLTNQQRYVLKIHLKDWEGNEAYSLYEHFYLSSEELNYRIHLKGLTGTAGKISSISQPGNDFSTKDGDNDKCICKCSQMLTGGWWFDACGPSNLNGMYYPQRQNTNKFNGIKWYYWKGSGYSLKATTMMIRPADF
notes: Several preparations are used (R&D Systems protein, biotinylated R&D protein, 293T conditioned media); also called hAng-2; huAng-2
Consider B3, for which the “IC50 (read off the curve)” value with 2xCon4 (C) 1K [4] was roughly 10 pM; with 2xCon4 (C) 1K [5], roughly 40 pM.
